Data published in the supplement of paper PMC7877785.
± gives the uncertainty stated by the source.

Test: self-splicing fitness, log relative to wild type (ln ratio); higher = more splicing; Tetrahymena group I intron in knt gene, E. coli kanamycin selection, DiMSum; sequences stand for … in CUCUCU…GGAGGGAAAAGUUAUCAGGCAUGCACCUGGUAGCUAGUCUUUAAACCAAUAGAUUGCAUCGGUUUAAAAGGCAAGACCGUCAAAUUGCGGGAAAGGGGUCAACAGCCGUUCAGUACCAAGUCUCAGGGGAAACUUUGAGAUGGCCUUGCAAAGGGUAUGGUAAUAAGCUGACGGACAUGGUCCUAACCACGCAGCCAAGUCCUAAGUCAACAGAUCUUCUGUUGAUAUGGAUGCAGUUCACAGACUAAAUGUCGGUCGGGGAAGAUGUAUUCUUCUCAUAAGAUAUAGUCGGACCUCUCCUUAAUGGGAGCUAGCGGAUGAAGUGAUGCAACACUGGAGCCGCUGGGAACUAAUUUGUAUGCGAAAGUAUAUUGAUUAGUUUUGGAGUACUCGUGGUCG
Method in brief: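 Six replicate transformations of E. coli BL21(DE3) with a pET-22b(+) library were grown overnight at 37°C or 30°C. The library randomised all eight P1ex-region intron nucleotides, the intron lying in the knt kanamycin-resistance gene, and plates were LB agar with or without 25 μg/mL kanamycin plus 100 μg/mL carbenicillin, 50 μM IPTG and 0.2% rhamnose. Pooled colonies were amplicon-sequenced on an Illumina HiSeq 2500, and fitness is the DiMSum error-weighted combination of wild-type-normalised replicate fold changes, kanamycin versus none.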

Sequence	self-splicing fitness (ln) (30 °C)	self-splicing fitness (ln) (37 °C)
AAUUAGCAAUAUUACGAGUU	-1.48 ± 0.12	-1.28 ± 0.15
AAUUAGCAAUAUUACGAUAC	-1.24 ± 0.36	-0.477 ± 0.21
AAUUAGCAAUAUUACGAUGA	-0.632 ± 0.094	-0.429 ± 0.11
AAUUAGCAAUAUUACGCACA	0.0525 ± 0.13	-0.475 ± 0.15
AAUUAGCAAUAUUACGCCAA	-2.13 ± 0.18	-1.25 ± 0.2
AAUUAGCAAUAUUACGCCCG	-1.04 ± 0.18	0.376 ± 0.28
AAUUAGCAAUAUUACGCCCU	0.0273 ± 0.1	-0.313 ± 0.13
AAUUAGCAAUAUUACGCUCC	-1.09 ± 0.36	-0.0599 ± 0.35
AAUUAGCAAUAUUACGGCUC	-0.532 ± 0.14	0.0268 ± 0.16
AAUUAGCAAUAUUACGGUCG	-0.573 ± 0.099	-0.259 ± 0.12
AAUUAGCAAUAUUACGGUGA	-1.7 ± 0.084	-0.534 ± 0.099
AAUUAGCAAUAUUACGGUUA	-0.622 ± 0.11	-0.183 ± 0.099
AAUUAGCAAUAUUACGGUUC	-3.38 ± 0.22	-2.65 ± 0.26
AAUUAGCAAUAUUACGUAAA	-1.3 ± 0.11	-0.736 ± 0.18
AAUUAGCAAUAUUACGUAUU	-2.32 ± 0.18	-0.913 ± 0.14
AAUUAGCAAUAUUACGUGUA	-2.21 ± 0.15	-1.41 ± 0.12
AAUUAGCAAUAUUACGUUAC	-3.18 ± 0.15	-1.74 ± 0.17
ACAAAGCAAUAUUACGACCU	0.0994 ± 0.076	0.311 ± 0.091
ACAAAGCAAUAUUACGAGGA	-3.04 ± 0.2	-2.07 ± 0.19
ACAAAGCAAUAUUACGAGUU	-3.3 ± 0.099	-1.68 ± 0.096
ACAAAGCAAUAUUACGCAAG	-1.45 ± 0.079	0.00248 ± 0.087
ACAAAGCAAUAUUACGCACC	-0.449 ± 0.19	0.128 ± 0.2
ACAAAGCAAUAUUACGCACU	-0.0924 ± 0.069	0.264 ± 0.089
